From the supplement of paper PMC9170038

Key:
[1] = tested on: MS2 coat protein; assay: apparent KD of MS2 coat protein; designed switch direction (-1 OFF switch, 1 ON switch): 1; higher = weaker reporter binding
In short: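 SNAP-549-labelled MS2 coat protein was titrated, doubling from 0.7 or 1.5 nM to 3 µM, over designed RNA switches transcribed on Illumina chips by stalled E. coli RNA polymerase. Runs were done without input, with 200 uM small-molecule ligand, or with an oligonucleotide input. Apparent KD is the per-design median over clusters of curve-fitted normalised fluorescence.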

[2] = tested on: MS2 coat protein; assay: apparent KD of MS2 coat protein; higher = weaker reporter binding; conditions: Eterna round: R107
In short: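 SNAP-549-labelled MS2 coat protein was titrated onto designed RNA switches that had been transcribed on-chip from Illumina sequencing clusters. Amounts doubled from 0.7 or 1.5 nM to 3 µM in 100 mM Tris-HCl pH 7.5, 80 mM KCl, 4 mM MgCl2, with constant ligand or without. Apparent KD is the median per design of normalised cluster binding-curve fits.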

[3] = input ligand: microRNA oligo, concentration not stated
[4] = Eterna round: R95, input ligand: FMN 200 uM
[5] = Eterna round: R95, input ligand: microRNA oligo, concentration not stated
[6] = Eterna round: R95, input ligand: none
[7] = input ligand: theophylline 20 uM
[8] = input ligand: tryptophan 2.4 mM
[9] = input ligand: theophylline 2 mM

| Sequence | apparent KD of MS2 coat protein ([1]; input ligand: FMN 200 uM) | apparent KD of MS2 coat protein [1, 3] | apparent KD of MS2 coat protein ([1]; input ligand: none) | apparent KD of MS2 coat protein ([2]; input ligand: arginine 13.2 mM) | apparent KD of MS2 coat protein [2, 7] | apparent KD of MS2 coat protein [2, 8] | apparent KD of MS2 coat protein [2, 9] | further results |
| --- | --- | --- | --- | --- | --- | --- | --- | --- |
| UGCCUGAGUCGAGGAUAUUAUGGAUCCUUUAAUACAUGAGGAUCACCCAUGUAAUUAAUUAUACAUGAGAAGGUGACUCAGGCU [SSNG2/11-B3] (Eterna round: R96, puzzle: Same State NG 2) | 0.0243 µM | 0.194 µM | 0.253 µM |  |  |  |  |  |
| CCGGGUAAUGGAGGAUAUGGAGCCUUAUUGGCUCCAGAAGGUCAAUAACAUGAGGAUCACCCAUGUCCGGCGGUCAAUAGACCG [Eli NG1ss - 68] (Eterna round: R96, puzzle: Same State NG 1) | 0.0875 µM | 0.202 µM | 0.775 µM |  |  |  |  |  |
| AUUUUUAAUGCAGGAUAUGAUUAACAUGAGGAUCACCCAUGUGGUGUUGUGAGUAAGGAGAGUGAUCAGAAGGGCAUUUUUUUC [JMF's solution 91] (Eterna round: R96, puzzle: Same State NG 2) | 0.888 µM | 0.274 µM | 0.502 µM |  |  |  |  |  |
| GCGGUACCUAACAUGAGGAUCACCCAUGUUCCGGAAACGGCACAGGAUAUCUGUCCGAAAAGGUCAGAGAAGGGUGAAAACCGC [Fiskers NG3ss - 94] (Eterna round: R96, puzzle: Same State NG 3) | 0.489 µM | 0.396 µM | 0.478 µM |  |  |  |  |  |
| GUACUACAUGAGGAUCACCCAUGUUACCUUCACGGAGGAUAUAGGAAAUGAGGUGAGAUGCUAGAAGGCCGAGGAA [Candy Rainbow 4] (puzzle: Same State 1) |  |  |  |  |  |  |  | apparent KD of MS2 coat protein [1, 4]: 0.102 µM; apparent KD of MS2 coat protein [1, 5]: 0.0783 µM; apparent KD of MS2 coat protein [1, 6]: 0.0959 µM |
| UAAACUAGUUAUAGUGUAAUGCAUAUUAUACAUGAGGAUCACCCAUGUGAUGGUUGGUAUGAUUUUGUUCGUCUUAA [JR_SHM208A_Sub079] (puzzle: Sensor for hsa-mir-208a) |  |  |  |  |  |  |  | apparent KD of MS2 coat protein [1, 4]: 0.148 µM; apparent KD of MS2 coat protein [1, 5]: 0.0619 µM; apparent KD of MS2 coat protein [1, 6]: 0.232 µM |
| CCGGUUUAUGGAGGAUAUGGAGCCUUAUUGGCUCCAGAAGGUCAAUAACAUGAGGAUCACCCAUGUCCGGCGGUCAAUAGACCG [Eli NG1ss - 69] (Eterna round: R96, puzzle: Same State NG 1) | 0.12 µM | 0.146 µM | 0.349 µM |  |  |  |  |  |
| GCUCGAUGAGCUGUCUACAUGAGGAUCACCCAUGUAGAUGGGCAGGAUAUUUACGUGCUUUGUGUAGAGAAGGGCCCAUCGAGC [SameState NG3 #77] (Eterna round: R96, puzzle: Same State NG 3) | 0.035 µM | 0.144 µM | 0.267 µM |  |  |  |  |  |
| UCGAGCGUACUUGCAGACAUGAGGAUCACCCAUGUAAAUGGGAAGGAUAUGGUACCGUUUCGGUACCAGAAGGUCCUAAGUGAU [salish99_SSNG3_r04_302] (Eterna round: R96, puzzle: Same State NG 3) | 0.574 µM | 0.465 µM | 1.2 µM |  |  |  |  |  |
| GUGGUCAGACAUGAGGAUCACCCAUGUGGAAUAAAUAAGGAGAAGGAUAUUCAAUAUAGGAUAUAGAAGAAGGUCUGGUUGGUG (Eterna round: R96, puzzle: Same State NG 3) |  | 0.0637 µM |  |  |  |  |  |  |
| AGAAGACAUGAGGAUCACCCAUGUCCCUCAUGCGUAGGAUAUAUAAGAAGAAAGAAAAGGAUAGAAGGACGAAAAG [Default title] (puzzle: Same State 1) |  |  |  |  |  |  |  | apparent KD of MS2 coat protein [1, 4]: 0.0975 µM; apparent KD of MS2 coat protein [1, 5]: 0.119 µM; apparent KD of MS2 coat protein [1, 6]: 0.194 µM |
| AAUUAACAUGAGGAUCACCCAUGUCGUAUUAUGGGAGGAUAUACGUGGACCGUAGUCCGCGUAGAAGGCCUAAUUA [Mat - Same State 1 - Mod of JL - D21] (Eterna round: R96, puzzle: Same State 1) | 0.021 µM | 0.0345 µM | 0.0382 µM |  |  |  |  |  |
| CGACACACGGCAGGAUAUGCUUAGCAAAGCUAAGCAGAAGGGCCUCAUGUCGUGGAAACCUGACAUGAGGAUCACCCAUGUCGG [Omei SS(NG)1 Cv3] (Eterna round: R96, puzzle: Same State NG 1) | 0.0238 µM | 0.0116 µM | 0.0376 µM |  |  |  |  |  |
| AAAAGAAACGCAGGAUAUGCACAUGAGGAUCACCCAUGUCCCACAGGCUCGACCGAGCCCGUGAAGCAGAAGGGUGUAAGAAAA [Redibere] (Eterna round: R96, puzzle: Same State NG 2) | 0.0825 µM | 0.426 µM | 3.39 µM |  |  |  |  |  |
| GCUACCAUUGAAGCCUACAUGAGGAUCACCCAUGUAUGUAGGCAGGAUAUCGAUUGCAAAGCGAUCGAGAAGGGCUUAGGUAGC [Mat - Same State NG 3 - JL Mod - D90] (Eterna round: R96, puzzle: Same State NG 3) | 0.0308 µM | 0.0522 µM | 0.0791 µM |  |  |  |  |  |
| UAUCUUGCGGGCGCCCGCAAGGUUGCGGAUACCAGCGAGAUAAAUCGCCCUUGGCAGCCGAACAUGAGGAUCACCCAUGUCGGAC [Same State - Theophylline A Attempt #1 (HarryS)] |  |  |  | 0.00794 µM | 0.0118 µM | 0.00987 µM |  |  |

| Sequence | apparent KD of MS2 coat protein ([1]; input ligand: FMN 200 uM) | apparent KD of MS2 coat protein [1, 3] | apparent KD of MS2 coat protein ([1]; input ligand: none) | apparent KD of MS2 coat protein ([2]; input ligand: arginine 13.2 mM) | apparent KD of MS2 coat protein [2, 7] | apparent KD of MS2 coat protein [2, 8] | apparent KD of MS2 coat protein [2, 9] | further results |
| --- | --- | --- | --- | --- | --- | --- | --- | --- |
| GAACAUAAGGAUAGUAUAAUGACUACAGAAGGAGCGUCAGGAAGGACAGGUAGGUCGCUGGAAGACAUGAGGAUCACCCAUGUUU [Arg A SS t2] |  |  |  | 0.0256 µM | 0.0353 µM | 0.0194 µM | 0.0245 µM | apparent KD of MS2 coat protein ([2]; input ligand: none): 0.0228 µM |
| ACCUGUACGAAAAGUGCAGGACACGAAUAACGAGGACCGGUACGGCCGCCACUCGGAAAAUAACCUGAGGAUCACCCUGGUCGUG [TrypAS 7 #AlternativeMS2 #Zipper #StaticStem] |  |  |  | 0.0295 µM | 0.0375 µM | 0.0339 µM | 0.0401 µM | apparent KD of MS2 coat protein ([2]; input ligand: none): 0.0316 µM |
| AAAUAAAUACAUGAGGAUCACCCAUGUGAAGGAGCGCCCGUUAGGGCAGGUAGGUCGCACAUGAACUCCAAGCGAAAGAAAUAAU [ArgEX 16 #OpenEnded] |  |  |  | 0.0236 µM | 0.0239 µM | 0.0164 µM | 0.0227 µM | apparent KD of MS2 coat protein ([2]; input ligand: none): 0.0183 µM |
| ACGGAUCGGAAACGAUCCGCGGCGAGGGUGCGAGGACCGGUACGGCCGCCACUCGGCUAACAUGAGGAUCACCCAUGUCCGAAGA [ETA NuPACK+Vienna+Vienna2 #9] |  |  |  | 0.0436 µM | 0.137 µM | 0.172 µM | 0.117 µM | apparent KD of MS2 coat protein ([2]; input ligand: none): 0.126 µM |
| CAUUAAUUACGAAGGAGCGUCGAGAAUGGGUAAACAUGAGGAUCACCCAUGUGAAGGGAACGGCAGGUAGGUCGCGUAAUUAAUG [#22 Same State - Arginine B] |  |  |  | 0.105 µM | 0.116 µM | 0.0605 µM | 0.0751 µM | apparent KD of MS2 coat protein ([2]; input ligand: none): 0.0972 µM |
| AGUACUCGAACGGAUACCAGCCGGACAUGAGGAUCACCCAUGUCCUACCUAUGUUCGGUUGGCCCUUGGCAGCCGUUCGUGUACA [Omei Theo B SS A v6] |  |  |  | 0.171 µM | 0.707 µM | 0.43 µM |  |  |
| AGUAAUAAUAUAAAUAAUAUUAGGUCAUGGCGAGGACCGGUACGGCCGCCACUCGGUUACAUGAGGAUCACCCAUGUCCCGCUUA [Exclusion - Tryptophan A] |  |  |  | 0.0266 µM | 0.035 µM |  | 0.0312 µM |  |
| CCGUUAAAAUUCCAUUAUACAAUACCUGAAGGAGCGUAGGAAACUACAGGUAGGUCGCAGAUACAUGAGGAUCACCCAUGUACGG [SSAA #13] |  |  |  | 0.0146 µM | 0.0203 µM | 0.0173 µM | 0.0225 µM | apparent KD of MS2 coat protein ([2]; input ligand: none): 0.0162 µM |
| AGACAUGAGGAUCACCCAUGUAGUAUGGAUACCAGAUCCAGAUUUAUCCCUUGGCAGCUGUGGUACAGUGAUGGAUUGCUCCUAG [Exclusion - Theophylline A (Freestyle 9)] |  |  |  | 0.0304 µM | 0.052 µM | 0.0327 µM |  |  |
| UGUAUGGACUGAAGGAGCGGGAAAAUAACCUGAGGAUCACCCAGGUAAAAGGCGAAAGCCACCCAGGUAGGUCGCAGUCCAUACU |  |  |  | 0.00569 µM | 0.0102 µM | 0.0125 µM | 0.0106 µM | apparent KD of MS2 coat protein ([2]; input ligand: none): 0.0107 µM |
| GUGGGACAUGAGGAUCACCCAUGUGACGAUACCAGUCAAUUGAUGGACCCUUGGCAGCGUUGGUAUUGCGGGUAGGCGAGAUAAG [theeternabot_sameState_MS2_Theo_A_3] |  |  |  | 0.0214 µM | 0.0602 µM | 0.0404 µM |  |  |
| ACGUCACGUUUACUCGUGGUUUCGAUCGAUACCAGUAGCGAGAGUUACCCUUGGCAGCGACAUGAGGAUCACCCAUGUGCGAAGA [XTheo A #26] |  |  |  | 0.0122 µM | 0.014 µM | 0.0117 µM |  |  |
| AGCCCGUGAGCGGCCGCCACUGGAGGCUUUGCGCGACAUGAGGAUCACCCAUGUGUGCCCGGCGUUAGGACCGGGUUCACGUGGU [#1 Same State - Tryptophan B Attempt #19 (HarryS)] |  |  |  | 0.0594 µM | 0.226 µM | 0.124 µM | 0.838 µM | apparent KD of MS2 coat protein ([2]; input ligand: none): 0.304 µM |
| AGUAUCAGUGGAAGGAGCGUCGCGACUGCCACAUGAGGAUCACCCAUGUCGCCUUGAGCGCGACAGGUAGGUCGCCACGGUAGGC [SS-ArgB2] |  |  |  | 0.0291 µM | 0.213 µM | 0.289 µM | 0.499 µM | apparent KD of MS2 coat protein ([2]; input ligand: none): 0.301 µM |
| CGUCAACAUGAGGAUCACCCAUGUUUCGAUACCAGUGACCCUCUCCACCCUUGGCAGCGAGCGCCCGCGCCUGAUAAAUCUUCUA [theeternabot_sameState_MS2_Theo_A_18] |  |  |  | 0.0135 µM | 0.0164 µM | 0.0141 µM |  |  |
